Experiment [1] addresses T1, iSRCR123 (Deglycosylated) (Homo sapiens, UniProt Q9UGM3).
T1 construct: multiple SRCR domains have better adherence capability compared to that of a single SRCR domain; made in house; host or cells: Drosophila expression system
Briefly: SPR binding of analytes to on-chip deglycosylated iSRCR123. The settings on record: ligand iSRCR123 (Deglycosylated). How it is done:
(§1) Real time binding analyses of the SRCR domains with AgI/II fragments were carried out using the BIAcore 2000 system. […] Self association of iSRCR1 or iSRCR123 (at 2 μM) were also determined in a similar manner as described above. Finally to determine the effect of calcium SPR analysis was carried out by dialyzing the analytes and ligands in binding buffer devoid of CaCl2.
(§2) On-chip Deglycosylation of the iSRCR1 and iSRCR123 was carried out after immobilizing them on CM5 sensor chip. Enzymatic deglycosylation was done to remove N- and O-linked carbohydrates from iSRCR1 and iSRCR123. Briefly, after immobilization of iSRCR1 and iSRCR123, deglycosylation was carried out at native conditions by incubating the entire chip surface externally with a cocktail containing a total reaction volume of 40 μl made up of 4 μl of 10×G7reaction buffer, 4 μl of 10% NP40, 4 μl of Neuraminidase (Sigma), 18 μl water and 10 μl of O-glycosidase (New England Biolabs, Inc.,) and similarly following manufacturers protocols for EndoH (New England Biolabs, Inc). Later, the chip was sealed and incubated overnight at 37° C. Subsequently the chip was thoroughly washed with binding buffer (20 mM HEPES, 150 mM NaCl, 2.5 mM CaCl2) to remove the deglycosylating enzymes and other remnants. Binding studies with FL^AgI/II and FL^SspB and subfragments were then carried out as described above and regenerated as described in Table 2.
(§3) In addition, the SRCR holding two distinct surfaces compounded the elucidation of individual kinetics, and presently there are no modeling protocols available to determine the individual affinities for such a system, therefore for simplicity we have utilized a single site 1:1 Langmuir model. All experiments were carried out in triplicates and the kinetics of the association (KA) and dissociation (KD) rate constants were deduced using the 1:1 Langmuir Kinetic model on the BIA-Evaluation software. The concentration (C in μM) of analyte (FL^AgI/II or FL^SspB at 2 μM) that adhered to the immobilized ligand (iSRCR1, iSRCR123) within the flow cell was calculated using the formula C=(RU/MW)×(1/V), where RU is resonance unit (1 RU=1 pg of bound protein), MW is molecular weight of analyte and V is volume of flow cell (1.2×10^−10 L).

In experiment [2] the target is T2, iSRCR1 (Homo sapiens, UniProt Q9UGM3).
T2 construct: strongly proves that a single SRCR domain contains the adherence sites for AgI/II and SspB; made in house; host or cells: Drosophila expression system
In words: SPR binding of analytes to immobilized iSRCR1 (CM5 chip, 1:1 Langmuir). The following applies: ligand iSRCR1. How it is done:
as §1, §3
In general terms: SPR reads the build-up and loss of mass on a sensor chip optically.

A further experiment deals with T3, iSRCR1 (Deglycosylated) (Homo sapiens, UniProt Q9UGM3).
T3 construct: strongly proves that a single SRCR domain contains the adherence sites for AgI/II and SspB; made in house; host or cells: Drosophila expression system
In words: SPR binding of analytes to on-chip deglycosylated iSRCR1. The settings on record: ligand iSRCR1 (Deglycosylated). How it is done:
as §1, §2, §3

Experiment [3] has as its target T4, iSRCR123 (Homo sapiens, UniProt Q9UGM3).
T4 construct: multiple SRCR domains have better adherence capability compared to that of a single SRCR domain; made in house; host or cells: Drosophila expression system
In words: SPR binding of analytes to immobilized iSRCR123 (CM5 chip, 1:1 Langmuir). The following applies: for KA / Kd / ka / kd: ligand iSRCR123. How it is done: as §1, §3

In experiment [4] the target is T4, iSRCR123. In words: Competition adherence SPR on immobilized iSRCR123. The following applies: FL injected first. The class given is binding. How it is done:
(§4) To determine whether AgI/II domains bound to the same site on SRCR domains, competitive binding SPR experiments were conducted in triplicates as previously described where each fragment of AgI/II (FL, A3VP1, or C123) or SspB (FL, A3VP1 or C123) was initially passed over the chip surface immobilized with either iSRCR1, iSRCR123 or SAG for 60 seconds to saturate available binding sites. The response curve of AgI/II or SspB first fragment was recorded, where the maximal RU (RU1) was considered as the base line for the second injection, and thereafter the competing fragment was injected and its response was recorded as RU2. The adherence of the second fragment was then calculated (RU2−RU1) for all SPR competing assay as reported earlier.

The target in another experiment is T5, SAG (Homo sapiens, UniProt Q9UGM3).
T5 construct: from tissue; host or cells: saliva (purified SAG, gift)
In words: SPR binding of analytes to immobilized SAG. The settings on record: ligand SAG. How it is done: as §1, §3

Experiment [5] deals with T2, iSRCR1. In words: Competition adherence SPR on immobilized iSRCR1. The class given is binding. The settings on record: FL injected first. How it is done: as §4

3 molecules from patent US20160331662A1, “Compositions that Inhibit and Prevent the Formation of Dental Caries and Methods of Using the Same” (priority 2014, published 2016) can be followed below.

T5 sequence (Q9UGM3 20-2413): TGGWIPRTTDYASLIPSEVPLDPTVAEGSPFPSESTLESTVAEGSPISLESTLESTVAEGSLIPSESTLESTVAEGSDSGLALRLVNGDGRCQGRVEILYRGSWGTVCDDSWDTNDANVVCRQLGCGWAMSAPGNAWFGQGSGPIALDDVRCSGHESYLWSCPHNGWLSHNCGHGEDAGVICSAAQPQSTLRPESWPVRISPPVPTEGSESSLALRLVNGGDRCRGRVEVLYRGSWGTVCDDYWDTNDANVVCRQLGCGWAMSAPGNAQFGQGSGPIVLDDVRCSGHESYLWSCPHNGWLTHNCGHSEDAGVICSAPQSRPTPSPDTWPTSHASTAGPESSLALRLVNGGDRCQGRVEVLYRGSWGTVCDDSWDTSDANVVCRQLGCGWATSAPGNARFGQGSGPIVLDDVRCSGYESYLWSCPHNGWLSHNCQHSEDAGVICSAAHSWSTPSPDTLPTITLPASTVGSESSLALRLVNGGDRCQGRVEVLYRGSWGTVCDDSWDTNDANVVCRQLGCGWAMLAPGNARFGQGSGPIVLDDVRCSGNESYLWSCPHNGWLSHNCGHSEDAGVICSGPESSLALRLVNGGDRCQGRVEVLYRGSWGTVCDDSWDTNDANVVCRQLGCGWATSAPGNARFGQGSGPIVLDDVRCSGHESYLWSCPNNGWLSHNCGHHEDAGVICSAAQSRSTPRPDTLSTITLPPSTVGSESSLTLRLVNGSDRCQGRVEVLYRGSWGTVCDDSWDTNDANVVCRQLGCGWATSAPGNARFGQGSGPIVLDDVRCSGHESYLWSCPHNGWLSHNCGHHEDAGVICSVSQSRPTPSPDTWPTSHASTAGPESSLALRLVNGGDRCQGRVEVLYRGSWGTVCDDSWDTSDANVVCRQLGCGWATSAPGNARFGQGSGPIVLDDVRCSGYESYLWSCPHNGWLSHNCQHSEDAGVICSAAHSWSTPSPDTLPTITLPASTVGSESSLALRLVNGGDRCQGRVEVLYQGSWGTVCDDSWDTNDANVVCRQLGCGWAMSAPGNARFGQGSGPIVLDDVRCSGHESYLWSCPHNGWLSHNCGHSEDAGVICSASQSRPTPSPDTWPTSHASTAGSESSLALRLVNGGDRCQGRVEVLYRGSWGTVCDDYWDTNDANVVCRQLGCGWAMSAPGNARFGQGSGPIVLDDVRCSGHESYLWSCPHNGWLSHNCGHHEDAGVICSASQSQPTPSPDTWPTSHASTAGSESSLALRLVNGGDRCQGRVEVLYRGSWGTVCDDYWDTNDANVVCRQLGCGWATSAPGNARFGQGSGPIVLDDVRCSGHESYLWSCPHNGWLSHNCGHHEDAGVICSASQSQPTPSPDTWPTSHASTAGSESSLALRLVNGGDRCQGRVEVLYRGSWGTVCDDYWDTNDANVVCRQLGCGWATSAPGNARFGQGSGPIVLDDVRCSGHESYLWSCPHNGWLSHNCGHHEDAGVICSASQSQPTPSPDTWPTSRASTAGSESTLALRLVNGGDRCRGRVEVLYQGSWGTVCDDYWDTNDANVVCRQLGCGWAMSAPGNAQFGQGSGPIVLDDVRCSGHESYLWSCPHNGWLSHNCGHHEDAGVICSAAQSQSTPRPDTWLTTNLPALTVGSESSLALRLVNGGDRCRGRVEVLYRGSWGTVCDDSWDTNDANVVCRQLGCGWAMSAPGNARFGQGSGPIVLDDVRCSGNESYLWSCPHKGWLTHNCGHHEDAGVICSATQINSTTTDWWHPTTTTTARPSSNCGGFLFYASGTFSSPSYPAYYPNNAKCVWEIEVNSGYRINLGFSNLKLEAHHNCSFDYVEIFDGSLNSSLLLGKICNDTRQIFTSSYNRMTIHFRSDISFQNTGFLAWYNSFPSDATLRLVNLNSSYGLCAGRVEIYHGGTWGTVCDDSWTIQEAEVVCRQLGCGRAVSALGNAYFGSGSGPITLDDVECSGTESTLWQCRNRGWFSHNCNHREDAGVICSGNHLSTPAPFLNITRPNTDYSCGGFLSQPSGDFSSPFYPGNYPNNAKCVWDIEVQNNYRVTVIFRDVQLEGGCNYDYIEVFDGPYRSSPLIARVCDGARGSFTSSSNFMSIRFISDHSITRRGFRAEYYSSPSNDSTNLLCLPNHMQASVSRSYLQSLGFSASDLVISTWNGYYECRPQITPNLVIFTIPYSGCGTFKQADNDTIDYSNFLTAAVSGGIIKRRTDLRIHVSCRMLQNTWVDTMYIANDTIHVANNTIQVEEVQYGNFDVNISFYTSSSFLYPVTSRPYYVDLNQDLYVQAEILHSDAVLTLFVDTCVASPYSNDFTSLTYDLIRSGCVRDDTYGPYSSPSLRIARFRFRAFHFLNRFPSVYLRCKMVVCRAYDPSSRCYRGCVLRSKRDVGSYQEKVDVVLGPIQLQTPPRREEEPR
T3 sequence (Q9UGM3 102-202): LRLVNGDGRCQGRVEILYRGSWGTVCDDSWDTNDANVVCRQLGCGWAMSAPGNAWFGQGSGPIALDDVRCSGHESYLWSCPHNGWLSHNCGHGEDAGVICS
T2 sequence (Q9UGM3 102-202 limits assumed): as the sequence (Q9UGM3 102-202) above
T1 sequence (Q9UGM3 102-463 limits assumed): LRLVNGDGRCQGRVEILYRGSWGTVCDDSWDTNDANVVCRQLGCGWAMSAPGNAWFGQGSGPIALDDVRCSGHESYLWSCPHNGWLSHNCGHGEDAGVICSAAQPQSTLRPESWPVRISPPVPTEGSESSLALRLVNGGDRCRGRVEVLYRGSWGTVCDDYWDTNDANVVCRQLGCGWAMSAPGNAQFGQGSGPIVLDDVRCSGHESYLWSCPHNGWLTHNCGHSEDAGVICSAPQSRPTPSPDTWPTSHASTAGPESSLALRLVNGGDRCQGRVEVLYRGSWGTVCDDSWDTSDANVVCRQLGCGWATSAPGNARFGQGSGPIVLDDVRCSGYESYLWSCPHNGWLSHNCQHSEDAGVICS
T4 sequence (Q9UGM3 102-463 limits assumed): as above

B1: A3VP1^AgI/II: S. mutans AgI/II apical A3VP1 fragment (54.4 kDa) (protein)
chain: AANEADYQAKLTAYQTELARVQKANADAKAAYEAAVAANNAANAALTAENTAIKKRNADAKADYEAKLAKYQADLAKYQKDLADYPVKLKAYEDEQASIKAALAELEKHKNEDGNLTEPSAQNLVYDLEPNANLSLTTDGKFLKASAVDDAFSKSTSKAKYDQKILQLDDLDITNLEQSNDVASSMELYGNFGDKAGWSTTVSNNSQVKWGSVLLERGQSATATYTNLQNSYYNGKKISKIVYKYTVDPKSKFQGQKVWLGIFTDPTLGVFASAYTGQVEKNTSIFIKNEFTFYDEDGKPINFDNALLSVASLNRENNSIEMAKDYTGKFVKISGSSIGEKNGMIYATDTLNFRQGQGGARWTMYTRASEPGSGWDSSDAPNSWYGAGAIRMSGPNNSVTLGAISSTLVVPADPTMAIETGKKPNIWYSLNGKIRAVNVPKVTKEKPTPPVKPTAPTKPTYETEKPLKPAPVAPNYEKEPTPPTRTPDQ
Consider B1, for which, in experiment [1], the KA stood at 1.22e+06 M⁻¹, binding was put at a Kd of 818 nM, the ka came to 4070 M⁻¹ s⁻¹ and the kd came to 0.00333 s⁻¹. For the same molecule, in the experiment with iSRCR1 [2], the KA turned out to be 8.57e+06 M⁻¹, binding was put at a Kd of 117 nM, the ka stood at 28000 M⁻¹ s⁻¹ and the kd worked out at 0.00327 s⁻¹. In the experiment with iSRCR1 (Deglycosylated), this molecule registered a KA of 1.92e+06 M⁻¹, a Kd of 520 nM, a ka of 5270 M⁻¹ s⁻¹ and a kd of 0.00274 s⁻¹. In the experiment with iSRCR123 [3], the KA came to 7.98e+06 M⁻¹, binding was put at a Kd of 125 nM, the ka came out at 19900 M⁻¹ s⁻¹ and the kd worked out at 0.00249 s⁻¹.

B2: FL^SspB: S. gordonii SspB full length construct (151.9 kDa) (protein)
chain: DEVTETTSTSTVEVATTGNPATNLPEAQGEMSQVAKESQAKAGSKESALPVEVSSADLDKAVADAKSAGVKVVQDETKDKGTATTATDNAQKQDEIKSDYAKQAEEIKTTTEAYKKEVAAHQAETDKINAENKAADDKYQKDLKSHQEEVEKINTANATAKAEYEAKLAQYQKDLATVKKANEDSQQDYQNKLSAYQTELARVQKANAEAKEAYEKAVKENTAKNEALKVENEAIKQRNETAKATYEAAMKQYEADLAAIKKANEDNDADYQAKLAAYQTELARVQKANAEAKEAYDKAVKENTAKNTAIQAENEAIKQRNETAKATYDAAVKKYEADLAAVKQANATNEADYQAKLAAYQTELARVQKANADAKATYEKAVEDNKAKNAAIKAENEEIKQRNAVAKTDYEAKLAKYEADLAKYKKEFAAYTAALAEAESKKKQDGYLSEPRSQSLNFKSEPNAIRTIDSSVHQYGQQELDALVKSWGISPTNPDRKKSRAYSYFNAINSNNTYAKLVLEKDKPVDVTYTGLKNSSFNGKKISKVVYTYTLKETGFNDGTKMTMFASSDPTVTAWYNDYFTSTNINVKVKFYDEEGQLMNLTGGLVNFSSLNRGNGSGAIDKDAIESVRNFNGRYIPISGSSIKIHENNSAYADSSNAEKSLGARWNTSEWDTTSSPNNWYGAIVGEITQSEISFNMASSKSGNIWFAFNSNINAIGVPTKPVAPTAPTQPMYETEKPLEPAPVAPSYENEPTPPVKTPDQPEPSKPEEPTYETEKPLEPAPVAPSYENEPTPPVKTPDQPEPSKPEEPNYETEKPLEPAPVAPSYENEPTPPVKIPDQPEPSKPEEPTYDPLPTPPLAPTPKQLPTPPVVPTVHFHYSSLLAQPQINKEIKNEDGVDIDRTLVAKQSIVKFELKTEALTAGRPKTTSFVLVDPLPTGYKFDLDATKAASTGFDTTYDEASHTVTFKATDETLATYNADLTKPVETLHPTVVGRVLNDGATYTNNFTLTVNDAYGIKSNVVRVTTPGKPNDPDNPNNNYIKPTKVNKNKEGLNIDGKEVLAGSTNYYELTWDLDQYKGDKSSKEAIQNGFYYVDDYPEEALDVRPDLVKVADEKGNQVSGVSVQQYDSLEAAPKKVQDLLKKANITVKGAFQLFSADNPEEFYKQYVATGTSLVITDPMTVKSEFGKTGGKYENKAYQIDFGNGYATEVVVNNVPKITPKKDVTVSLDPTSENLDGQTVQLYQTFNYRLIGGLIPQNHSEELEDYSFVDDYDQAGDQYTGNYKTFSSLNLTMKDGSVIKAGTDLTSQTTAETDATNGIVTVRFKEDFLQKISLDSPFQAETYLQMRRIAIGTFENTYVNTVNKVAYASNTVRTTTPIPRTPDKPTPIPTPKPKDP
Regarding B2, the “inhibition of binding of the A3VP1 fragment of the same protein” value with iSRCR123 [4] came to 68%; with iSRCR1 [5], 54%. Further, the “inhibition of binding of the C123 fragment of the same protein” value with iSRCR123 [4] was 76%; in the experiment with iSRCR1 [5], 23%. Moreover, the KA in experiment [1] stood at 5.24e+06 M⁻¹; with iSRCR1 [2], 3.91e+06 M⁻¹; in the experiment with SAG, 1.63e+08 M⁻¹; with iSRCR1 (Deglycosylated), 7.97e+06 M⁻¹; with iSRCR123 [3], 2.38e+07 M⁻¹. In addition, the Kd in experiment [1] was found to be 191 nM; in the experiment with iSRCR1 [2] it was 256 nM; in the experiment with iSRCR1 (Deglycosylated) it was 125 nM; in the experiment with iSRCR123 [3], 42.1 nM. For the same molecule, the ka in experiment [1] came out at 6920 M⁻¹ s⁻¹; with iSRCR1 [2] it was 9250 M⁻¹ s⁻¹; in the experiment with SAG it was 320000 M⁻¹ s⁻¹; in the experiment with iSRCR1 (Deglycosylated) it was 8300 M⁻¹ s⁻¹; with iSRCR123 [3], 18200 M⁻¹ s⁻¹. The kd in experiment [1] turned out to be 0.00132 s⁻¹; with iSRCR1 [2], 0.00237 s⁻¹; with SAG it was 0.00197 s⁻¹; with iSRCR1 (Deglycosylated), 0.00104 s⁻¹; in the experiment with iSRCR123 [3], 0.000759 s⁻¹. Further, in the experiment with iSRCR123 [3] (analyte at 2 μM, iSRCR123 versus iSRCR1), the “quantity of protein that adhered to iSRCR123, higher than iSRCR1” value was 43%.

B3: C123^AgI/II: S. mutans AgI/II C-terminal C123 fragment (57.3 kDa) (protein)
chain: VNKEIRNNNDINIDRTLVAKQSVVKFQLKTADLPAGRDETTSFVLVDPLPSGYQFNPEATKAASPGFDVTYDNATNTVTFKATAATLATFNADLTKSVATIYPTVVGQVLNDGATYKNNFTLTVNDAYGIKSNVVRVTTPGKPNDPDNPNNNYIKPTKVNKNENGVVIDGKTVLAGSTNYYELTWDLDQYKNDRSSADTIQKGFYYVDDYPEEALELRQDLVKITDANGNEVTGVSVDNYTNLEAAPQEIRDVLSKAGIRPKGAFQIFRADNPREFYDTYVKTGIDLKIVSPMVVKKQMGQTGGSYENQAYQIDFGNGYASNIIINNVPKINPKKDVTLTLDPADTNNVDGQTIPLNTVFNYRLIGGIIPADHSEELFEYNFYDDYDQTGDHYTGQYKVFAKVDITFKDGSIIKSGAELTQYTTAEVDTAKGAITIKFKEAFLRSVSIDSAFQAESYIQMKRIAVGTFENTYINTVNGVTYSSNTVK
In experiment [1], B3 showed a KA of 458000 M⁻¹, a Kd of 2180 nM, a ka of 3010 M⁻¹ s⁻¹ and a kd of 0.00658 s⁻¹. For the same molecule, in the experiment with iSRCR1 [2], the KA is 6.46e+06 M⁻¹, binding was characterised by a dissociation constant (Kd) of 151 nM, the ka worked out at 15400 M⁻¹ s⁻¹ and the kd amounted to 0.00232 s⁻¹. Further, in the experiment with iSRCR1 (Deglycosylated), the KA is 48100 M⁻¹, the Kd amounted to 20800 nM, the ka was found to be 1180 M⁻¹ s⁻¹ and the kd stood at 0.0246 s⁻¹. Further, in the experiment with iSRCR123 [3], the KA worked out at 1.15e+07 M⁻¹, binding was put at a Kd of 87 nM, the ka is 8290 M⁻¹ s⁻¹ and the kd was 0.000721 s⁻¹.

One may read the Kd as a measure of binding affinity in units of concentration. Higher therefore signals weaker binding.
